# Experimental data published in patent US20170296640A1 (IMMATICS BIOTECHNOLOGIES, published 2017).
# B1: FIFSYITAV (SEQ ID NO: 81) (peptide)
# peptide: FIFSYITAV
# B2: QLYDGATALFL (SEQ ID NO: 99) (peptide)
# peptide: QLYDGATALFL
# B3: KLLFEIASA (SEQ ID NO: 92) (peptide)
# peptide: KLLFEIASA
# B4: SLDLRPLEV (SEQ ID NO: 74) (peptide)
# peptide: SLDLRPLEV
# B5: KLLGSLQLL (SEQ ID NO: 93) (peptide)
# peptide: KLLGSLQLL
# B6: LLAGQATTAYF (SEQ ID NO: 94) (peptide)
# peptide: LLAGQATTAYF
# B7: FLIDGSSSV (SEQ ID NO: 82) (peptide)
# peptide: FLIDGSSSV
# B8: GLFDNRSGLPEA (SEQ ID NO: 88) (peptide)
# peptide: GLFDNRSGLPEA
# B9: AMEEAVAQV (SEQ ID NO: 78) (peptide)
# peptide: AMEEAVAQV
# B10: AALKYIPSV (SEQ ID NO: 75) (peptide)
# peptide: AALKYIPSV
# B11: YLFDEIDQA (SEQ ID NO: 80) (peptide)
# peptide: YLFDEIDQA
# B12: GLAPAEVVVATVA (SEQ ID NO: 85) (peptide)
# peptide: GLAPAEVVVATVA
# B13: HLSSTTAQV (SEQ ID NO: 91) (peptide)
# peptide: HLSSTTAQV
# B14: LLLNENESLFL (SEQ ID NO: 96) (peptide)
# peptide: LLLNENESLFL
# B15: YLGEEYPEV (SEQ ID NO: 73) (peptide)
# peptide: YLGEEYPEV
# B16: HLDEVFLEL (SEQ ID NO: 90) (peptide)
# peptide: HLDEVFLEL
# B17: GLTALHVAV (SEQ ID NO: 89) (peptide)
# peptide: GLTALHVAV
# B18: AMKEEKEQL (SEQ ID NO: 79) (peptide)
# peptide: AMKEEKEQL
# B19: MLQDGIARL (SEQ ID NO: 98) (peptide)
# peptide: MLQDGIARL
# B20: LLFDLIPVVSV (SEQ ID NO: 95) (peptide)
# peptide: LLFDLIPVVSV
# B21: ALADLVPVDVVV (SEQ ID NO: 76) (peptide)
# peptide: ALADLVPVDVVV
# B22: RLIRTIAAI (SEQ ID NO: 100) (peptide)
# peptide: RLIRTIAAI
# B23: LLNFSPGNL (SEQ ID NO: 97) (peptide)
# peptide: LLNFSPGNL
# B24: GLFARIIMI (SEQ ID NO: 87) (peptide)
# peptide: GLFARIIMI
# B25: ALYAVIEKA (SEQ ID NO: 8) (peptide)
# peptide: ALYAVIEKA
# B26: ALLDVSNNYGI (SEQ ID NO: 77) (peptide)
# peptide: ALLDVSNNYGI
# B27: FLMDDNMSNTL (SEQ ID NO: 83) (peptide)
# peptide: FLMDDNMSNTL
# B28: FLQELQLEHA (SEQ ID NO: 84) (peptide)
# peptide: FLQELQLEHA
# B29: GLATIRAYL (SEQ ID NO: 86) (peptide)
# peptide: GLATIRAYL
# B30: FLLDLDPLL (SEQ ID NO: 9) (peptide)
# peptide: FLLDLDPLL
# Target: T1, HLA-A*02:01 (peptide-receptive MHC class I monomer after UV cleavage of the UV-sensitive ligand) (human)
# T1 construct: MHC monomers loaded by UV-ligand exchange and captured on streptavidin plates
# Assay: UV ligand-exchange ELISA; exchange yield grade (+ >=10%, ++ >=20%, +++ >=50%, ++++ >=75%)
# How it was run: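 UV-exchange pMHC monomers, 100-fold diluted → streptavidin capture 1 h 37 °C → HRP anti-β2m 2 ug/ml 1 h 37 °C → TMB, A450. Yield from HLA-A*02:01/MLA-001 monomer standard curve, 15-500 ng/ml. Only stably bound peptides keep β2m-containing complexes intact.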
row,peptide exchange yield,Binder
1,20 to 50%,B1
2,20 to 50%,B2
3,50 to 75%,B3
4,≥ 75%,B4
5,≥ 75%,B5
6,50 to 75%,B6
7,50 to 75%,B7
8,50 to 75%,B8
9,50 to 75%,B9
10,50 to 75%,B10
11,50 to 75%,B11
12,50 to 75%,B12
13,20 to 50%,B13
14,50 to 75%,B14
15,50 to 75%,B15
16,50 to 75%,B16
17,50 to 75%,B17
18,20 to 50%,B18
19,50 to 75%,B19
20,50 to 75%,B20
21,≥ 75%,B21
22,50 to 75%,B22
23,10 to 20%,B23
24,20 to 50%,B24
25,50 to 75%,B25
26,≥ 75%,B26
27,50 to 75%,B27
28,50 to 75%,B28
29,50 to 75%,B29
30,50 to 75%,B30
